Results as given in patent US20040146519A1.

Biological target: HLA-A*2401 (human)
Assay: inhibition of 125I probe peptide binding to purified HLA

| Substance | relative binding ratio |
| --- | --- |
| CEA peptide, position 94, 8 amino acids | 0.0003 |
| CEA peptide, position 356, 8 amino acids | 0.0009 |
| CEA peptide, position 390, 10 amino acids | 0.0002 |
| CEA peptide, position 42, 11 amino acids | -0.0005 |
| CEA peptide, position 27, 10 amino acids | 0.03 |
| CEA peptide, position 137, 8 amino acids | 0.0006 |
| CEA peptide, position 448, 8 amino acids | 0.0005 |
| CEA peptide, position 248, 10 amino acids | 0.0002 |
| CEA peptide, position 118, 8 amino acids | 0.001 |
